Reference: article PMC4503318 (Chemistry & biology, 2015)
Read-outs that look alike come from different tables or passages of the source.

B1: Pf-like human LysRS (human LysRS 70-584 with P300T, Q321V, T337S) (enzyme)
chain: not shown
B2: Plasmodium falciparum lysyl-tRNA synthetase (PfLysRS), residues 77-583 (enzyme)
chain: not shown

Assays:
crystal structure [1] = biological target: the molecule itself; test: crystal structure
crystal structure [2] = biological target: the molecule itself; test: crystal structure; remark: listed apart in the source

Row | Protein | binding result (crystal structure [1]) | binding result (crystal structure [2])
1 | B1 | binds | –
2 | B2 | – | binds
